Source: article PMC11059244

Conditions: phosphorylation at S405

Substance	degradation_or_half_life	other	expression_or_secretion
YAP: S405A	decreases	increases	–
YAP: S405D phosphomimetic	–	decreases	–
YAP: ponatinib (MAP3K3 inhibitor)	–	–	decreases
